Data on three molecules can be found in article PMC7055376, “Evidence for binary Smc complexes lacking kite subunits in archaea” (IUCrJ, 2020).

Data set [1] deals with the molecule itself. Put plainly: SEC; individual ScpB homologue alone on Superdex 200 Increase 10/300 GL; 20 mM Tris-HCl pH 7.5, 100 mM NaCl, 1 mM DTT, 4°C; elution compared with 158 kDa and 43 kDa markers. Background: In gel filtration, larger molecules generally elute earlier.
Data set [2] deals with the molecule itself. Put plainly: crystal structure; SeMet-substituted full-length PYCH_12850; 35% pentaerythritol propoxylate, 0.1 M MES pH 5.5, 0.4 M NaCl, 22°C.
Data set [3] deals with T1, (His)10-MBP-tagged Thermococcus onnurineus ScpA (TON_1071) (Thermococcus onnurineus, UniProt B6YWU6).
T1 chain: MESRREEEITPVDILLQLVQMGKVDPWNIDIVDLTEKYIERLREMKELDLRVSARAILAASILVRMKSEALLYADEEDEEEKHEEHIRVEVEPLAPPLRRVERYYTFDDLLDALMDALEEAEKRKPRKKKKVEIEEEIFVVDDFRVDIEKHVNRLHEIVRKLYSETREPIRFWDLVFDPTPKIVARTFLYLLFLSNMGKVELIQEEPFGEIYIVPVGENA
Put plainly: His pull-down (Ni-NTA) and size-exclusion chromatography.

B1: Metli_0606 (sole ScpB homologue of Methanofollis liminatans), untagged (natural protein, UniProt J1ANV5 1-161, looked up)
chain: MVDRTAMLEAALFVADAPVSYGDLAKIFGIKPGEVPALAQELSGRLSARSSPLEVIDSGESVFMVLKEEYAVLVYPVMRPEISRAVLRTLSVIAYRQPILQSDLIEIRGGGAYAHVEELVKRDLVARYRSGRSYLLQTTPEFSRYFKTSDLVGGQGRLDID
notes: ScpB homologue Metli_0606 of Methanofollis liminatans; untagged in the assays; also called ScpB homologue Metli_0606; source: E. coli BL21 (DE3) RIPL, purified
As usually defined, the stoichiometry N is the number of molecules, sites or subunits per partner or assembly. As to B1, the “stoichiometry N” value in data set [1] amounted to 2.

B2: Selenomethionine-substituted full-length PYCH_12850 (crystallised) (natural protein, Pyrococcus yayanosii, UniProt F8AFC4 1-192, looked up)
chain: MGLLEDKALVEAALFVAGRPLSLKELSKALGIKSLEYLEKLIELIASEYEERKSAIEVVKVLGDKWVMQLKQEYSQKVIHLMPKPELRAGELKTLALIAYLQPVEQSKIIKLRGSQAYEHIKKLLEMGLIYAEPYERTKLLGTTQKFAELYGFPENDPELIKEAFKKVIHSEYADLMEKIEKNNRKDKREEA
modifications: selenomethionine in place of methionine
notes: ScpB homologue PYCH_12850 of Pyrococcus yayanosii, full length; homodimer in the crystal; also called PYCH_12850 (SeMet); ScpB from Pyrococcus yayanosii; source: E. coli B834 (DE3) RIL, purified
In the case of B2, in data set [2], the binding result is recorded as “binds”.

B3: TON_1955 (putative Thermococcus onnurineus ScpB), untagged (protein)
chain: MGLLEDKALVEAALFVSGRPLSIKELSRALGIRSLDYLEKLIELIAAEYAERKSAIEVVRVLGDKYVMQVKQEYSQRVVHLMPRPDLRTGELKTLALIAYLQPIEQSKLVKLRGSQAYEHIRKLLEMGLIYAEPYERTKLLGTTPKFAELYGFPENDPMMIKEAFKKVVHAEYSDLIAKLEGKEEKEEMPQESEE
Regarding B3, the binding result in data set [3] is listed as “no binding”.
